# ± gives the uncertainty stated by the source.
# Assay: self-splicing fitness, log relative to wild type (ln ratio); higher = more splicing; Tetrahymena group I intron in knt gene, E. coli kanamycin selection, DiMSum; sequences stand for … in CUCUCU…GGAGGGAAAAGUUAUCAGGCAUGCACCUGGUAGCUAGUCUUUAAACCAAUAGAUUGCAUCGGUUUAAAAGGCAAGACCGUCAAAUUGCGGGAAAGGGGUCAACAGCCGUUCAGUACCAAGUCUCAGGGGAAACUUUGAGAUGGCCUUGCAAAGGGUAUGGUAAUAAGCUGACGGACAUGGUCCUAACCACGCAGCCAAGUCCUAAGUCAACAGAUCUUCUGUUGAUAUGGAUGCAGUUCACAGACUAAAUGUCGGUCGGGGAAGAUGUAUUCUUCUCAUAAGAUAUAGUCGGACCUCUCCUUAAUGGGAGCUAGCGGAUGAAGUGAUGCAACACUGGAGCCGCUGGGAACUAAUUUGUAUGCGAAAGUAUAUUGAUUAGUUUUGGAGUACUCGUGGUCG
# How it was run: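 The eight P1ex-region nucleotides of an intron in the knt kanamycin-resistance gene on pET-22b(+) were all randomised and the library put into E. coli BL21(DE3). Six replicate transformations were grown overnight at 37°C or 30°C on LB agar with or without 25 μg/mL kanamycin, together with 100 μg/mL carbenicillin, 50 μM IPTG and 0.2% rhamnose. Colonies were pooled and amplicon-sequenced on an Illumina HiSeq 2500. Fitness from DiMSum is the error-weighted combination of wild-type-normalised replicate fold changes, kanamycin over none.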
Sequence,self-splicing fitness (ln) (30 °C),self-splicing fitness (ln) (37 °C)
GACAAGCAAUAUUACGUUGG,-3.26 ± 0.11,-2.56 ± 0.14
GACAAGCAAUAUUACGUUUA,-1.66 ± 0.084,-1.58 ± 0.089
GACCAGCAAUAUUACGACAA,-0.854 ± 0.099,-0.621 ± 0.13
GACCAGCAAUAUUACGAUCU,-0.841 ± 0.091,-0.153 ± 0.1
GACCAGCAAUAUUACGAUGG,-3.69 ± 0.19,-2.82 ± 0.21
GACCAGCAAUAUUACGCAGC,-0.913 ± 0.11,-0.292 ± 0.13
GACCAGCAAUAUUACGCCCU,-0.482 ± 0.11,-0.286 ± 0.12
GACCAGCAAUAUUACGCGCC,-0.0376 ± 0.14,-0.617 ± 0.18
GACCAGCAAUAUUACGCGGG,-3.03 ± 0.13,-2.79 ± 0.19
GACCAGCAAUAUUACGGCCC,-2.54 ± 0.24,-1.98 ± 0.34
GACCAGCAAUAUUACGGCCG,-0.246 ± 0.063,0.158 ± 0.093
GACCAGCAAUAUUACGGGAC,-2.5 ± 0.092,-1.03 ± 0.092
GACCAGCAAUAUUACGGGUA,-0.533 ± 0.058,-0.146 ± 0.061
GACCAGCAAUAUUACGGGUU,-4.24 ± 0.21,-2.53 ± 0.18
GACCAGCAAUAUUACGGUUA,-0.367 ± 0.046,-0.221 ± 0.056
GACCAGCAAUAUUACGUGAA,-0.0938 ± 0.063,0.524 ± 0.089
GACCAGCAAUAUUACGUGGU,-2.67 ± 0.095,-3.29 ± 0.15
GACCAGCAAUAUUACGUGUG,-0.363 ± 0.047,-0.452 ± 0.058
GACGAGCAAUAUUACGAAGG,-3.03 ± 0.19,-2.52 ± 0.33
GACGAGCAAUAUUACGACAG,,-1.89 ± 0.23
GACGAGCAAUAUUACGAGGU,-3.81 ± 0.28,-2.38 ± 0.27
GACGAGCAAUAUUACGAUUU,-0.943 ± 0.085,-1.19 ± 0.098
GACGAGCAAUAUUACGCAAA,-3.39 ± 0.27,-1.96 ± 0.22
GACGAGCAAUAUUACGCAGA,-3.74 ± 0.33,-3.45 ± 0.42

Sequence,self-splicing fitness (ln) (30 °C),self-splicing fitness (ln) (37 °C)
GACGAGCAAUAUUACGCCUA,-0.714 ± 0.32,
GACGAGCAAUAUUACGCGAG,-2.3 ± 0.17,-2.85 ± 0.26
GACGAGCAAUAUUACGCGGU,-4.23 ± 0.31,-1.83 ± 0.2
GACGAGCAAUAUUACGCUAG,-3.19 ± 0.19,-2.47 ± 0.18
GACGAGCAAUAUUACGGAAC,-1.3 ± 0.19,-2.43 ± 0.35
GACGAGCAAUAUUACGGAUC,-2.68 ± 0.39,-1.75 ± 0.44
GACGAGCAAUAUUACGGCAG,-2.04 ± 0.25,-2.51 ± 0.38
GACGAGCAAUAUUACGGCCG,-2.02 ± 0.25,-0.723 ± 0.37
GACGAGCAAUAUUACGGCGC,-1.79 ± 0.093,-0.8 ± 0.11
GACGAGCAAUAUUACGGCGU,-3.7 ± 0.32,-1.9 ± 0.26
GACGAGCAAUAUUACGGUAA,-3.65 ± 0.47,-2.33 ± 0.33
GACGAGCAAUAUUACGUACU,-1.64 ± 0.18,-0.775 ± 0.14
GACGAGCAAUAUUACGUAUG,-2.4 ± 0.17,-1.58 ± 0.16
GACGAGCAAUAUUACGUCAU,-2.2 ± 0.2,-3.16 ± 0.43
GACGAGCAAUAUUACGUCCA,-2.11 ± 0.32,-2.68 ± 0.31
GACGAGCAAUAUUACGUCCC,,-0.0984 ± 0.5
GACGAGCAAUAUUACGUCUA,-2.4 ± 0.23,-1.43 ± 0.13
GACGAGCAAUAUUACGUCUG,-3.64 ± 0.22,-2.53 ± 0.2
GACUAGCAAUAUUACGAAAG,-2.97 ± 0.16,-1.8 ± 0.2
GACUAGCAAUAUUACGAACG,-1.34 ± 0.11,-0.144 ± 0.15
GACUAGCAAUAUUACGAACU,0.186 ± 0.15,1.04 ± 0.22
GACUAGCAAUAUUACGAAGC,-2.18 ± 0.18,-1.55 ± 0.18
GACUAGCAAUAUUACGAAUC,-2.28 ± 0.32,-1.83 ± 0.28
GACUAGCAAUAUUACGACAU,-0.511 ± 0.012,-0.122 ± 0.032

Sequence,self-splicing fitness (ln) (30 °C),self-splicing fitness (ln) (37 °C)
GACUAGCAAUAUUACGAGCU,-1.61 ± 0.13,-0.918 ± 0.093
GACUAGCAAUAUUACGAGGC,,-2.23 ± 0.3
GACUAGCAAUAUUACGAUAC,-1.31 ± 0.07,-0.489 ± 0.092
GACUAGCAAUAUUACGAUCG,-1.24 ± 0.13,-0.31 ± 0.21
GACUAGCAAUAUUACGAUCU,-0.896 ± 0.087,-1.38 ± 0.096
GACUAGCAAUAUUACGAUGA,-0.535 ± 0.1,-1.08 ± 0.08
GACUAGCAAUAUUACGCCAU,-2.02 ± 0.12,-1.32 ± 0.14
GACUAGCAAUAUUACGCCGC,-3.31 ± 0.21,-1.65 ± 0.2
GACUAGCAAUAUUACGCGAU,-2.8 ± 0.21,-2.42 ± 0.3
GACUAGCAAUAUUACGCGCA,-0.593 ± 0.16,-0.286 ± 0.18
GACUAGCAAUAUUACGGAUA,-1.4 ± 0.09,-0.349 ± 0.09
GACUAGCAAUAUUACGGCAU,-0.26 ± 0.059,0.291 ± 0.081
GACUAGCAAUAUUACGGCGA,-0.738 ± 0.079,-0.303 ± 0.081
GACUAGCAAUAUUACGGGCG,-0.65 ± 0.061,-0.282 ± 0.071
GACUAGCAAUAUUACGUAAA,-0.826 ± 0.097,0.0101 ± 0.12
GACUAGCAAUAUUACGUAUC,-2.74 ± 0.11,-1.98 ± 0.12
GACUAGCAAUAUUACGUCGC,-3.63 ± 0.18,-1.94 ± 0.16
GACUAGCAAUAUUACGUGAC,-1.34 ± 0.085,-1.39 ± 0.12
GACUAGCAAUAUUACGUGCU,-3.61 ± 0.16,-1.9 ± 0.12
GAGAAGCAAUAUUACGAAAG,-4.36 ± 0.32,-1.5 ± 0.2
GAGAAGCAAUAUUACGACAU,-0.36 ± 0.013,-0.137 ± 0.033
GAGAAGCAAUAUUACGACGU,-0.944 ± 0.22,0.108 ± 0.19
GAGAAGCAAUAUUACGAGCU,-0.838 ± 0.12,-0.347 ± 0.11
GAGAAGCAAUAUUACGAUCA,-1.06 ± 0.15,-0.469 ± 0.16

Sequence,self-splicing fitness (ln) (30 °C),self-splicing fitness (ln) (37 °C)
GAGAAGCAAUAUUACGAUCG,-0.334 ± 0.094,-0.068 ± 0.14
GAGAAGCAAUAUUACGAUGC,-1.06 ± 0.15,-0.435 ± 0.21
GAGAAGCAAUAUUACGCGUA,-1.03 ± 0.12,-1.1 ± 0.13
GAGAAGCAAUAUUACGCUAU,-2.79 ± 0.19,-1.31 ± 0.16
GAGAAGCAAUAUUACGCUUC,-2.79 ± 0.26,-2.89 ± 0.38
GAGAAGCAAUAUUACGGAAC,-2.78 ± 0.19,-0.25 ± 0.16
GAGAAGCAAUAUUACGGAUA,-2.16 ± 0.2,-0.942 ± 0.21
GAGAAGCAAUAUUACGGAUG,-2.5 ± 0.14,-0.821 ± 0.13
GAGAAGCAAUAUUACGGCGC,0.341 ± 0.21,-0.241 ± 0.22
GAGAAGCAAUAUUACGGGAA,-2.47 ± 0.25,-1.24 ± 0.22
GAGAAGCAAUAUUACGGGAG,-2.12 ± 0.13,-1.63 ± 0.18
GAGAAGCAAUAUUACGGGGU,-3.06 ± 0.2,-3.13 ± 0.28
GAGAAGCAAUAUUACGGUCC,-2.14 ± 0.24,-1.06 ± 0.21
GAGAAGCAAUAUUACGGUUG,-2.18 ± 0.1,-1.99 ± 0.14
GAGAAGCAAUAUUACGUAAG,-2.72 ± 0.15,-1.1 ± 0.15
GAGAAGCAAUAUUACGUAUC,-3.78 ± 0.37,-3.21 ± 0.35
GAGAAGCAAUAUUACGUCAA,-1.82 ± 0.11,-0.98 ± 0.11
GAGAAGCAAUAUUACGUCAC,-3.6 ± 0.29,-0.67 ± 0.24
GAGAAGCAAUAUUACGUCAG,-3.34 ± 0.23,-1.35 ± 0.18
GAGAAGCAAUAUUACGUCUA,-0.555 ± 0.076,0.35 ± 0.092
GAGAAGCAAUAUUACGUGCG,-1.71 ± 0.093,-1.02 ± 0.1
GAGAAGCAAUAUUACGUUGG,-2.35 ± 0.15,-2.66 ± 0.21
GAGCAGCAAUAUUACGAACG,-2.53 ± 0.18,-0.673 ± 0.16
GAGCAGCAAUAUUACGAAGU,-2.87 ± 0.21,-0.867 ± 0.16

# — the supplement of paper PMC7877785
